Data published in PMC8163098.

Key:
[1] = target: mouse 80S ribosomes (monosomes) and polysomes (mouse (endogenous in neocortex and Neuro2a)) (UniProt P84099); assay: cryo-EM structure
[2] = target: rabbit reticulocyte 60S ribosomal subunit (rabbit (endogenous in reticulocyte lysate)) (UniProt G1SV32); assay: co-sedimentation

overall occupancy [1] [%] | percent of ribosomes with Ebp1 bound [1] [%] | percent of ribosomes with Ebp1 bound, each of the five sub-states [1] [%] | Ebp1 concentration at saturated binding (100 nM 60S) [2] [nM] | Kd [2] [nM] | Substance
52 | 48 | 50 |  |  | ErbB3-binding protein 1 (Ebp1), endogenous full-length mouse protein (from UniProt P50580-1 1-394) (natural protein)
 |  |  | 200 | 124 | polyhistidine-tagged full-length recombinant Ebp1 (Ebp1-His) (from UniProt P50580 1-394) (natural protein)
